± gives the uncertainty stated by the source.
B1: Telomeric repeat-binding factor 2, residues 489 to 542; numbered along this chain, Q15554 (parent)
chain: KQKWTVEESEWVKAGVQKYGEGNWAAISKNYPFVNRTAVMIKDRWRTMKRLGMN

Variants of: B1
Experiment: abundance fitness (aPCA) (normalised: wild type 0, dead -1); higher = more abundant; growth selection in yeast, the domain comes from the species named
Conditions: Homo sapiens

Row | Variant | abundance fitness
1 | M40W | 0.066 ± 0.071
2 | M40G | -0.406 ± 0.061
3 | M40L | -0.508 ± 0.057
4 | M40P | -0.935 ± 0.1
5 | W11F | -0.394 ± 0.13
6 | W11P | -0.327 ± 0.19
7 | W11I | -0.241 ± 0.18
8 | W11G | -0.193 ± 0.057
9 | Q2C | -0.248 ± 0.16
10 | Q2R | -0.202 ± 0.082
11 | Q2I | 0.29 ± 0.29
12 | Q2F | 0.725 ± 0.2
13 | Q2N | 0.333 ± 0.37
14 | Q2M | -0.191 ± 0.29
15 | Q2V | 0.271 ± 0.093
16 | T37M | -0.974 ± 0.27
17 | T37R | -0.999 ± 0.093
18 | T37Y | -0.967 ± 0.41
19 | T37F | -0.629 ± 0.15
20 | T37Q | -0.903 ± 0.26
21 | V16E | -0.62 ± 0.092
22 | V16Y | -0.885 ± 0.25
23 | V16D | -0.459 ± 0.091
24 | V16M | -0.664 ± 0.05

Row | Variant | abundance fitness
25 | V16K | -0.798 ± 0.43
26 | V16T | -0.157 ± 0.17
27 | V16R | -0.323 ± 0.074
28 | K29R | -0.281 ± 0.088
29 | K29N | 0.205 ± 0.45
30 | K29M | -0.091 ± 0.091
31 | K29T | -0.051 ± 0.12
32 | K29C | 0.162 ± 0.13
33 | K29D | -0.188 ± 0.15
34 | K29G | -0.364 ± 0.051
35 | K29S | -0.082 ± 0.053
36 | K29L | -0.129 ± 0.076
37 | K29A | -0.256 ± 0.11
38 | G52V | 0.004 ± 0.076
39 | G52T | -0.1 ± 0.24
40 | G52L | -0.195 ± 0.054
41 | G52W | -0.449 ± 0.11
42 | G52S | -0.358 ± 0.086
43 | G52I | -0.019 ± 0.065
44 | K13N | -0.232 ± 0.057
45 | K13A | -0.242 ± 0.1
46 | K13M | -0.013 ± 0.069
47 | K13L | -0.112 ± 0.087
48 | K13F | -0.24 ± 0.22

Row | Variant | abundance fitness
49 | N30M | -0.314 ± 0.17
50 | N30R | -0.508 ± 0.11
51 | N30E | 0.077 ± 0.12
52 | N30L | -0.287 ± 0.064
53 | A25G | -0.13 ± 0.066
54 | A25P | -0.663 ± 0.27
55 | A25R | -0.373 ± 0.12
56 | A25K | -0.448 ± 0.12
57 | A25F | 0.045 ± 0.13
58 | A25Y | -0.235 ± 0.1
59 | V39E | 0.008 ± 0.07
60 | V39I | -0.075 ± 0.13
61 | V39L | -0.154 ± 0.055
62 | V39Y | -0.015 ± 0.11
63 | V39H | -0.442 ± 0.23
64 | V39A | 0.091 ± 0.087
65 | V39S | 0.057 ± 0.049
66 | V39Q | 0.001 ± 0.087
67 | V39N | 0.253 ± 0.089
68 | N23T | -0.478 ± 0.18
69 | N23Q | 0.057 ± 0.41
70 | N23C | -0.417 ± 0.36
71 | N23S | -0.238 ± 0.086
72 | R46T | 0.136 ± 0.084

Row | Variant | abundance fitness
73 | R46K | -0.007 ± 0.2
74 | R46A | 0.106 ± 0.069
75 | R46M | 0.325 ± 0.089
76 | R46N | 0.047 ± 0.17
77 | R46Q | -0.004 ± 0.12
78 | R46P | -0.828 ± 0.41
79 | R46W | -0.106 ± 0.039
80 | R46C | -0.133 ± 0.076
81 | R46F | 0.073 ± 0.067
82 | R46E | 0.204 ± 0.09
83 | T5V | -0.789 ± 0.11
84 | T5I | -0.669 ± 0.31
85 | T5D | -0.38 ± 0.14
86 | T5F | -0.826 ± 0.11
87 | T5E | -0.272 ± 0.16
88 | G22L | -0.761 ± 0.14
89 | G22D | -0.051 ± 0.072
90 | G22M | -0.788 ± 0.15
91 | G22Q | -0.427 ± 0.09
92 | G22F | -0.338 ± 0.19
93 | N54T | 0.544 ± 0.12
94 | N54H | 0.092 ± 0.37
95 | N54W | -0.166 ± 0.077
96 | N54Y | -0.399 ± 0.16

Row | Variant | abundance fitness
97 | N54A | 0.246 ± 0.11
98 | Y19V | -1.04 ± 0.29
99 | Y19G | -0.912 ± 0.22
100 | Y19A | -0.421 ± 0.066
101 | Y19N | -0.242 ± 0.34
102 | Y19E | -0.321 ± 0.16
103 | Y19T | -0.395 ± 0.1
104 | R50F | 0.076 ± 0.094
105 | R50S | 0.068 ± 0.056
106 | R50N | -0.054 ± 0.12
107 | R50I | 0.286 ± 0.09
108 | R50H | -0.553 ± 0.21
109 | R50V | -0.07 ± 0.074
110 | R50Y | -0.456 ± 0.17
111 | V6F | 0.031 ± 0.15
112 | V6H | 0.298 ± 0.11
113 | V6E | -0.007 ± 0.094
114 | V6G | -0.253 ± 0.061
115 | V6A | 0.291 ± 0.085
116 | V6W | -0.063 ± 0.076
117 | V6N | -0.433 ± 0.23
118 | V6S | -0.024 ± 0.089
119 | M48I | -0.395 ± 0.092
120 | M48L | -0.177 ± 0.048

Row | Variant | abundance fitness
121 | M48S | -0.95 ± 0.2
122 | M48W | -0.359 ± 0.12
123 | M48Q | -0.64 ± 0.15
124 | M48R | -1 ± 0.16
125 | M48T | -0.635 ± 0.16
126 | M48G | -1.02 ± 0.1
127 | M48E | -0.674 ± 0.24
128 | M48Y | -0.696 ± 0.24
129 | M48P | -0.886 ± 0.069
130 | M48N | -0.376 ± 0.099
131 | A26E | -0.18 ± 0.12
132 | A26G | -0.792 ± 0.11
133 | A26I | -0.177 ± 0.28
134 | A26K | -0.005 ± 0.11
135 | A26T | 0.065 ± 0.22
136 | A26C | 0.047 ± 0.14
137 | A26N | -0.656 ± 0.22
138 | W45I | -0.65 ± 0.074
139 | W45T | -0.986 ± 0.19
140 | W45E | -0.571 ± 0.047
141 | I27R | -0.788 ± 0.055
142 | I27L | -0.457 ± 0.1
143 | I27M | -0.561 ± 0.22
144 | I27T | -0.533 ± 0.28

Row | Variant | abundance fitness
145 | I41S | -1.13 ± 0.38
146 | I41V | -0.392 ± 0.056
147 | I41C | -0.692 ± 0.15
148 | I41T | -0.786 ± 0.28
149 | I41G | -1.06 ± 0.1
150 | I41E | -0.975 ± 0.17
151 | W4V | -0.61 ± 0.23
152 | W4A | -0.804 ± 0.19
153 | W4G | -0.637 ± 0.15
154 | W4H | -0.391 ± 0.16
155 | W4F | -0.023 ± 0.12
156 | Q17G | -0.108 ± 0.074
157 | Q17M | -0.531 ± 0.21
158 | Q17F | -0.469 ± 0.14
159 | Q17H | -0.328 ± 0.29
160 | Q17Y | -0.136 ± 0.13
161 | Q17C | 0.016 ± 0.12
162 | Q17T | 0.003 ± 0.1
163 | N35E | -0.185 ± 0.11
164 | N35C | -0.71 ± 0.18
165 | N35Y | -0.375 ± 0.15
166 | N35H | -0.277 ± 0.35
167 | N35V | -0.643 ± 0.06

Reference: the Human Domainome abundance scans (Beltran et al. 2025)
